Here are results for two proteins from patent US20260193669A1 (NYKODE THERAPEUTICS ASA, published 2026).

This data set concerns the molecule itself. The data set can be described thus: blue native PAGE and Western blot of supernatant, Motavizumab detection; self-assembly. A general note: A western blot detects proteins with antibodies after separation by electrophoresis.

B1: PreF protein and ferritin (further polypeptide of DNA plasmids IV083 and IV085; also encoded alone by IV081) (other)
chain: QNITEEFYQSTCSAVSKGYLSALRTGWYTSVITIELSNIKENKCNGTDAKVKLIKQELDKYKNAVTELQLLMGSGNVGLGGAIASGVAVSKVLHLEGEVNKIKSALLSTNKAVVSLSNGVSVLTFKVLDLKNYIDKQLLPILNKQSCSISNPETVIEFQQKNNRLLEITREFSVNAGVTTPVSTYMLTNSELLSLINDMPITNDQKKLMSNNVQIVRQQSYSIMSIIKEEVLAYVVQLPLYGVIDTPCWKLHTSPLCTTNTKNGSNICLTRTDRGWYCDNAGNVSFFPQAETCKVQSNRVFCDTMNSRTLPSEVNLCNVDIFNPKYDCKIMTSKTDVSSSVITSLGAIVSCYGKTKCTASNKNRGIIKTFSNGCDYVSNKGVDTVSVGNTLYYVNKQEGKSLYVKGEPIINFYDPLVFPSDEFDASISQVNEKINQSLAFINKSDELLSGSGSESQVRQQFSKDIEKLLNEQVNKEMQSSNLYMSMSSWSYTHSLDGAGLFLFDHAAEEYEHAKKLIIFLNENNVPVQLTSISAPEHCFEGLTQIFQKAYEHEQHISESINNIVDHAIKSKDHATFNFLQWYVAEQHEEEVLFKDILDKIELIGNENHGLYLADQYVKGIAKSRKS
notes: Secreted into supernatant of Expi293F cells; 24-mer by native PAGE; also called further polypeptide (PreF protein)-ferritin nanoparticles, IV083 and IV085
Consider B1, for which the binding result is given as “binds”.

B2: Single chain PreF protein and ferritin (further polypeptide of DNA plasmids IV082 and IV084; also encoded alone by IV080) (other)
chain: QNITEEFYQSTCSAVSKGYLSALRTGWYTSVITIELSNIKENKCNGTDAKVKLIKQELDKYKNAVTELQLLMGSGNVGLGGAIASGVAVCKVLHLEGEVNKIKSALLSTNKAVVSLSNGVSVLTFKVLDLKNYIDKQLLPILNKQSCSISNIETVIEFQQKNNRLLEITREFSVNAGVTTPVSTYMLTNSELLSLINDMPITNDQKKLMSNNVQIVRQQSYSIMCIIKEEVLAYVVQLPLYGVIDTPCWKLHTSPLCTTNTKEGSNICLTRTDRGWYCDNAGSVSFFPQAETCKVQSNRVFCDTMNSRTLPSEVNLCNVDIFNPKYDCKIMTSKTDVSSSVITSLGAIVSCYGKTKCTASNKNRGIIKTFSNGCDYVSNKGVDTVSVGNTLYYVNKQEGKSLYVKGEPIINFYDPLVFPSDEFDASISQVNEKINQSLAFIRKSDELLSGGSSGSSGGSDIIKLLNEQVNKEMQSSNLYMSMSSWCYTHSLDGAGLFLFDHAAEEYEHAKKLIIFLNENNVPVQLTSISAPEHKFEGLTQIFQKAYEHEQHISESINNIVDHAIKCKDHATFNFLQWYVAEQHEEEVLFKDILDKIELIGNENHGLYLADQYVKGIAKSRKSGS
notes: Secreted into supernatant of Expi293F cells; 24-mer by native PAGE; also called further polypeptide (PreF protein)-ferritin nanoparticles, IV082 and IV084
Regarding B2, the binding result is listed as “binds”.
